According to US20190112365A1 (EISAI R AND D MANAGEMENT, published 2019):
Where two headings read alike, the source gives them in different places.

Legend:
[1] = biological target: T1, Peptide antigen CNIKHVPGGGSVQIVYKPVD (human, conjugated to BSA in the ELISA (to KLH via the N-terminal cysteine in the immunogen)); experiment: ELISA screening of hybridoma clones
T1 construct: also called original immunization peptide; immunizing Tau peptide
T1 peptide: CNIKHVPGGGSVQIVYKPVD
Experimental: One month after the boost immunization, antisera were collected from the mice and antibody titers assessed by ELISA to measure immunoreactivity against the original immunizing Tau peptide and both 2N4R and 1N3R recombinant Tau proteins. Briefly, either 150 ng of Peptide antigen conjugated to BSA or 50 ng of 2N4R or 1N3R recombinant Tau protein (Enzo Life Sciences, cat. no's BML-SE321 and BML-SE323 respectively) were used to coat each well of a 96-well plate (Costar cat. no. 2797) in 10 mM phosphate buffer, pH 7.0 at 37° C. for 1 hour. Plates were blocked in a final concentration of 1% BSA diluted in PBS at room temperature for 30 minutes. […] Following additional wash steps, antibody binding was detected by addition of 3,3′,5,5′-Tetramethylbenzidine (TMB) substrate. The enzymatic reaction was stopped with an equal volume of 2M H₂SO₄ and the well optical density was determined using a platereader at wavelength 450 nm.
Once mice with a high antibody titer had been determined, cells were isolated from the medial iliac lymph nodes and fused using polyethylene glycol with mouse myeloma SP2 cells to generate hybridomas. […] To give an approximation of relative binding, culture supernatant that was positive in the peptide ELISA and either recombinant protein, 2N4R or 1N3R, or both, were then evaluated in a competitive ELISA system. […]

[2] = biological target: T2, Human Tau 2N4R, wild type, recombinant full length (human, UniProt P10636 2-758); experiment: SPR BIAcore, mAb captured by anti-mouse IgG, Tau flowed, 1:1 Langmuir
T2 construct: Full length 2N4R isoform; monomer in SPR and ELISA; heparin-induced aggregates or seeds in the functional assays; also called Tau441; Tau-441
T2 sequence (P10636 other isoform, or with tags, fused parts or gaps limits assumed): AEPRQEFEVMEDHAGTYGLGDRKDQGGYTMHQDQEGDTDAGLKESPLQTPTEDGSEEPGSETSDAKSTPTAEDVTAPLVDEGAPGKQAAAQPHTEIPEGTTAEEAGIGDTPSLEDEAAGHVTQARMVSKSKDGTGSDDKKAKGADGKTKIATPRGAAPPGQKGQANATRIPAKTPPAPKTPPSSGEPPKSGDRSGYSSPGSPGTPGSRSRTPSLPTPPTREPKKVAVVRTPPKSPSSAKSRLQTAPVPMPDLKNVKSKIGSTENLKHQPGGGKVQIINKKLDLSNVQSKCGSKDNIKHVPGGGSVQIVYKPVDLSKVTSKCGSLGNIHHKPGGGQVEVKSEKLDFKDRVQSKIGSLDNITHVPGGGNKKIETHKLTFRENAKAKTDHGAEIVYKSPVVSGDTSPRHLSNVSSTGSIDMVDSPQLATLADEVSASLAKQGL
Experimental: (§1) All experiments were performed using a BIAcore™ T-100 instrument (GE Healthcare). 10 μL anti-human IgG (monoclonal mouse anti-human Fc) from human antibody capture kit (GE Healthcare) was diluted to 25 μL/mL in 200 μL final immobilization buffer (10 mM sodium acetate, pH 5.0). The flow rate was set to 5 μL/min, flowpath 1. Fifty μL N-hydroxysuccinamide (NETS) and 50 μL 1-ethyl-3-(3-dimethylaminopropyl) carbidiimide (EDC) were mixed and injected for 420 sec to activate the CM5 chip surface. The diluted antibody was injected for 360 seconds followed by 1 M ethanolamine for 420 seconds. The flowpath was then switched to flowpath 2. A new EDC/NHS mixture was prepared and the procedure was repeated for flow cell 2. The surface was conditioned by 2 injections of 30 sec using flowpath 1, 2 at 30 μL/min of 3M MgCl₂. For the anti-mouse surface, 10 μL anti-mouse IgG (polyclonal rabbit anti-mouse IgG) from mouse antibody capture kit (GE Healthcare) was diluted to 30 μL/mL in 324 μL final immobilization buffer (10 mM sodium acetate, pH 5.0). The flow rate was set to 5 μL/min, flowpath 3. Fifty μL NHS and 50 μL EDC were mixed and injected for 420 sec to activate the chip surface. The diluted antibody was injected for 420 sec. 1 M ethanolamine was injected for 420 sec. Flow path was switched to flowpath 4. A new EDC/NHS mixture was prepared and the procedure was repeated for flow cell 4. The surface was conditioned by 2 injections of 30 sec using flowpath 3, 4 at 30 μL/min of 10 mM glycine, pH 1.7.
(§2) Binding of humanized and mouse antibodies were analyzed by BIAcore™ to determine their relative association rates (ka), dissociation rates (kd), and equilibrium binding constants (KD). Anti-mouse or anti-human antibodies were immobilized on a CM5 chip and sample mAbs were captured on the chip. 2N4R Tau was flowed over the chip and binding observed. The binding constants kₐ, kd, and KD were determined using a 1:1 Langmuir fitting model. Both 7G6-HCzu12-based mAbs had similar kₐ and kd values (Table 8). However, the kₐ of 7G6-HCzu11 was decreased, though the kd was unaffected. Therefore, human residues in the Vh3 framework impact binding to Tau.

[3] = biological target: T2, Human Tau 2N4R, wild type, recombinant …; experiment: as above; remark: listed apart in the source
Experimental: as §1, §2

binding result [1]: binds
Kd [2]: 3.31 nM
koff [2]: 0.00153 s⁻¹
kon [2]: 464000 M⁻¹ s⁻¹
Kd [3]: 3.31 nM
koff [3]: 0.00153 s⁻¹
kon [3]: 464000 M⁻¹ s⁻¹
B1: murine 7G6 antibody (antibody, mouse IgG2b, V domains shown)
VH: QVQLLQPGAELVKPGASVIMSCKASGYTFTTYWITWVKQRPGQGLEWIGDIYPGSSICNYNEKFKSKATLTVDTSSSTAYMQLNSLTSEDSAVYYCAREDGYDAWFAYWGQGTLVTVSA
VL: DVLMTQTPLSLPVSLGDQASISCRSSQSILHSNGNTYLEWYLQKPGQSPKLLICKVSNRFSGVPDRFSGSGSGTDFTLKISRVEAEDLGVYYCFQGSHVPFTFGSGTKLEIK
notes: Mouse IgG2b, kappa, purified from hybridoma; also called ms7G6; mouse 7G6
